Measured values reported in patent US20150099269, “Hybridization- Independent Labeling Of Repetitive DNA Sequence In Human Chromsomes” (University of Massachusetts, published 2015).

How the values were obtained:
[1] = biological target: T1, TALE-TelR15 (artificial); assay: methanol-fixed, 2N HCl treated cells, room temperature; signal correlates with telomere length (HeLa 1.3 higher than HeLa S3); conditions: tags: fused sfGFP, mTagBFP2, mTFP1, YPet or mCherry (pT7CFE1-His vector)
T1 chain: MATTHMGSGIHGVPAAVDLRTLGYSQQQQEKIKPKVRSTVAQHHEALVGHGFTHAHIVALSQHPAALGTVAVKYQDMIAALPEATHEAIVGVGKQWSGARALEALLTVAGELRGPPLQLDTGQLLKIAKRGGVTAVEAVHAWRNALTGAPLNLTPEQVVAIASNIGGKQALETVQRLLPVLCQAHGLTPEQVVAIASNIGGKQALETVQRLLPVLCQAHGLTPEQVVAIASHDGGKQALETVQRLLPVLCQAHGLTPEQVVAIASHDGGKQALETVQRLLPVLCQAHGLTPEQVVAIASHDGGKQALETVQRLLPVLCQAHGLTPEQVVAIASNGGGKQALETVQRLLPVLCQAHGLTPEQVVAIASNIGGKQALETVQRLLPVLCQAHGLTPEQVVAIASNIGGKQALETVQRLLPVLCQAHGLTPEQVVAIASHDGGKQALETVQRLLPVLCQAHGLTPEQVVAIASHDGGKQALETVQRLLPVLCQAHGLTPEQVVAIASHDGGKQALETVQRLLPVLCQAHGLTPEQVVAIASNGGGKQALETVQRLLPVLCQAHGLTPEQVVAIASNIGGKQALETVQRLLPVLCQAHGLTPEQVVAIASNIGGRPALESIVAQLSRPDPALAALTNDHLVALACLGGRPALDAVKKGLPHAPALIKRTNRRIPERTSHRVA
Description: Cells grown on coverslips were fixed in ice-cold methanol for 10 min at −20° C. All subsequent steps were carried out at room temperature. The fixed cells were incubated with 2N HCl for 5 min and then washed twice with PBS for 5 min each and then incubated with a given TALEColor probe as a 1:10 dilution from the coupled in vitro transcription-translation reactions mixtures for 30 min. The cells were then washed once with PBS for 5 min. Coverslips were mounted in Prolong Antifade (Molecular Probes, Eugene, Oreg.), and images were captured with the fluorescence microscopy system described above.

[2] = biological target: T2, TALE-TelR15 Green-Lysine labelled, no FP (artificial); assay: fixed U2OS cells, compared with the mCherry fusion; conditions: tags: internal lysines labelled with green dye (Promega), pET30a vector
T2 chain: T1 chain

B1: TelR15 target (dsDNA)
DNA 1: TAACCCTAACCCTAA
DNA 2: TTAGGGTTAGGGTTA
binding result [1]: binds
binding result [2]: binds
